Molecular target: HLA-A2 (human)
Assay: assembly assay: peptide stabilisation of HLA-A2 from T2 lysate, W6/32 immunoprecipitation

C50 [µM]	Binder
0.7	ALVGACITL (The end of the range is worked out from the printed start and the peptide length) [Bcl224]
2	KTLLSLALV (The end of the range is worked out from the printed start and the peptide length) [bcl218]
1	FTARGRFATV (The end of the range is worked out from the printed start and the peptide length) [bcl124]
7	PLFDFSWLSL (The end of the range is worked out from the printed start and the peptide length) [bcl208]

Further lines, the binder ahead of its results:

Binder	C50 [µM]
AAAGPALSPV (The end of the range is worked out from the printed start and the peptide length) [bcl80]	36
LLSLALVGA (The end of the range is worked out from the printed start and the peptide length) [bcl220]	1
NIALWMTEYL (The end of the range is worked out from the printed start and the peptide length) [bcl172]	2
WLSLKTLLSL (The end of the range is worked out from the printed start and the peptide length) [bcl214]	3
ALSPVPPVV (The end of the range is worked out from the printed start and the peptide length) [Bcl85]	1
YLNRHLHTWI (The end of the range is worked out from the printed start and the peptide length) [bcl180]	15
SLALVGACI (The end of the range is worked out from the printed start and the peptide length) [bcl222]	1

From patent US20080050396A1 (SURVAC, published 2008)
